The values that follow come from article PMC3832594.

The target in the assay is MCT2 tagged at its N-terminus with CFP (rat) (UniProt Q63344). The assay is described as follows: FRET or BRET; live COS-7 cells co-transfected with MCT2-ECFP (N-terminal) and np55- or np65-EYFP (C-terminal), 48 h after transfection; 37°C, imaging buffer pH 7.4; ratio of emission at 480 nm to 530 nm on excitation at 430 nm (MCT2-CFP alone 1.33±0.016).
Chain of MCT2 tagged at its N-terminus with CFP (rat) (Q63344 whole entry): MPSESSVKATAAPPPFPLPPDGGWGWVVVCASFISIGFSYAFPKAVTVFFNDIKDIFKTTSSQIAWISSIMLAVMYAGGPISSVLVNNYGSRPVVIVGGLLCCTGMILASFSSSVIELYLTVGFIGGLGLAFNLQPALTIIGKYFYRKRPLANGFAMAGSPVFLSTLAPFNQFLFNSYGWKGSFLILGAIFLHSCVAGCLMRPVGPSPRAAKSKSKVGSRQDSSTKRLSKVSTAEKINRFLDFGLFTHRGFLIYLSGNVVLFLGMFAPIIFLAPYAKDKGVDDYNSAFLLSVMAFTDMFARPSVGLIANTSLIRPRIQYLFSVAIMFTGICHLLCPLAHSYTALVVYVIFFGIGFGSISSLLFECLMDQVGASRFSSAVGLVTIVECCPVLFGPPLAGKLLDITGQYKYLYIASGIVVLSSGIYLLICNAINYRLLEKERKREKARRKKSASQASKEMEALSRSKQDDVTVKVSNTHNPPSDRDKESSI

Chain of np55 C-terminally labelled with YFP (natural protein) (P97546 29-393): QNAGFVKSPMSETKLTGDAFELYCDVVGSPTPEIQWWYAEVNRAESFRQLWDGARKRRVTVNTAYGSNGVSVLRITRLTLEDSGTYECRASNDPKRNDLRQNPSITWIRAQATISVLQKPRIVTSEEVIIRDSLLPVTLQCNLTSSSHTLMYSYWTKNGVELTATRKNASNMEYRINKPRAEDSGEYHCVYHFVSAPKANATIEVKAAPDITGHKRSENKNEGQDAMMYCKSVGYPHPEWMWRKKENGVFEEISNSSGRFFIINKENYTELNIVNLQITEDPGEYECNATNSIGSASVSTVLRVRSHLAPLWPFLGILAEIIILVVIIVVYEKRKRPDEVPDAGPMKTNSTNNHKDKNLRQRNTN

For the substance “np55 C-terminally labelled with YFP (natural protein)”, the 480:530 nm fluorescence emission ratio (FRET) amounted to 0.797.
